For four substances, stoichiometry N, stoichiometry N (RAD6 per RAD18) and Kd results are on record in doi:10.1101/2023.12.08.570772.

Assay [1] deals with RAD18/RAD6 complex (full-length, purified) (human) (UniProt Q9NS91). The experiment in a line: mass photometry.
Assay [2] has as its target His-tagged full length (FL) wildtype (WT) RAD18 (human) (UniProt Q9NS91). Description: AUC.
For assay [3] the target is unchanged. The experiment in a line: mass photometry.
Assay [4] deals with RAD6 WT (N-terminal histidine tag, purified alone) (human) (UniProt P63146). Description: ITC.
Chain of RAD6 WT (N-terminal histidine tag, purified alone) (human) (P63146 whole entry): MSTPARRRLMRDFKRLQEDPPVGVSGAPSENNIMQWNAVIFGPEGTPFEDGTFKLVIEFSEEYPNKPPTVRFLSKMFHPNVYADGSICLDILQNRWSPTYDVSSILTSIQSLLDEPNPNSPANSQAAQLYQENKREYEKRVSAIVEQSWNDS

Chain of RAD6 of the purified RAD18/RAD6 complex (P63146 whole entry, one chain of several): as the sequence (P63146 whole entry) above
Chain of His-tagged full length (FL) wildtype (WT) RAD18 (Q9NS91 whole entry): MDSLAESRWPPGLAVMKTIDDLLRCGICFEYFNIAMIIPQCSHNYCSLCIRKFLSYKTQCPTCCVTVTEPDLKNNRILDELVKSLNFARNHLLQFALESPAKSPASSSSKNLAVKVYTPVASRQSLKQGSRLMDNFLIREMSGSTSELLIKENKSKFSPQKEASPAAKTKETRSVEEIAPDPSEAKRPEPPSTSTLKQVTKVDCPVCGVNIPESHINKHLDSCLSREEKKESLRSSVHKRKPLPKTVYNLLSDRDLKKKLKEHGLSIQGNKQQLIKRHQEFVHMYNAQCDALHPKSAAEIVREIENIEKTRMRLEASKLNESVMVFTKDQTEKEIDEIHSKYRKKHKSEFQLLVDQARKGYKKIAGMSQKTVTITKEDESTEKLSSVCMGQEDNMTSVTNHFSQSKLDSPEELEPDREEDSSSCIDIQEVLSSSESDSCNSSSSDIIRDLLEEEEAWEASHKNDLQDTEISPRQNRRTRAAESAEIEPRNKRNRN
Chain of His-tagged full length (FL) wildtype (WT) RAD18 (human) (Q9NS91 whole entry): as above
Chain of Full length MAGEA4 WT (N-terminal histidine tag) (P43358 whole entry): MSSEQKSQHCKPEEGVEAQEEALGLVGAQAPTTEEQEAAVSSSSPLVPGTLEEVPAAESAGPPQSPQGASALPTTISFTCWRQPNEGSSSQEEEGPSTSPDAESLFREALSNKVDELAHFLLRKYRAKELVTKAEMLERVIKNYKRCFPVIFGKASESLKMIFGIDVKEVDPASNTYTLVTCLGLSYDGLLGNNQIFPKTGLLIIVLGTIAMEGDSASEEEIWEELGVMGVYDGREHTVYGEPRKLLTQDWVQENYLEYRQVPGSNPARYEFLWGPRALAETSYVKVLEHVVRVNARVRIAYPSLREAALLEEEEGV
Chain of RAD18/RAD6 complex (full-length, purified) (human) (Q9NS91 whole entry, chain 1 of 2): as the sequence (Q9NS91 whole entry) above
Chain of RAD18/RAD6 complex (full-length, purified) (human) (P63146 whole entry, chain 2 of 2, further chain): as the sequence (P63146 whole entry) above

With “Full length MAGEA4 WT (N-terminal histidine tag) (from UniProt P43358 1-317) (natural protein)”, in assay [1], the stoichiometry N is 1.

As to “His-tagged full length (FL) wildtype (WT) RAD18 (from UniProt Q9NS91 1-495) (enzyme)”, the stoichiometry N in assay [2] and in assay [3] was 2 each time.

For “RAD6 of the purified RAD18/RAD6 complex (from UniProt P63146 1-152) (enzyme)”, the stoichiometry N (RAD6 per RAD18) in assay [2] and in assay [3] was 0.5 each time.

Turning to “RAD18 R6BD peptide (27 amino acid peptide containing amino acids 340-366 of RAD18) (from UniProt Q9NS91 340-366)”, in assay [4], the dissociation constant Kd turned out to be 25.3 µM. This counts as double-digit micromolar.
